The Human Domainome abundance scans (Beltran et al. 2025)

B1: RNA-binding E3 ubiquitin-protein ligase MEX3C, residues 325 to 391; numbered along this chain, Q5U5Q3 (parent)
chain: GQTTVQVRVPYRVVGLVVGPKGATIKRIQQQTHTYIVTPSRDKEPVFEVTGMPENVDRAREEIEMHI
B2: Integrator complex subunit 12, residues 155 to 213; numbered along this chain, Q96CB8 (parent)
chain: AMEMGLACVVCRQMMVASGNQLVECQECHNLYHRDCHKPQVTDKEANDPRLVWYCARCT

Variants of: B1
Experiment: abundance fitness (aPCA) (normalised: wild type 0, dead -1); higher = more abundant; growth selection in yeast, the domain comes from the species named
Conditions: Homo sapiens

Abundance fitness, by site and new letter:
R60: A -0.694; G -0.575; H -0.401; L -0.098; I -0.026; F -0.526; Q -0.639; E -0.739; M -0.296; V -0.006; D -1.13; T -0.557; C -0.025; K -0.024; P -0.651; W -0.53
E61: I -0.472; D -0.043; M -0.161; H 0.022; A 0.014; S -0.089; T -0.037; W -0.353; Y -0.177; L -0.266; P -0.85; Q -0.023; K 0.069; F -0.342; N -0.36; G -0.343; V -0.17
R58: E -0.572; Q -0.304; P -1.09; F -0.519; M -0.409; W -0.555; K 0.067; S -0.614; D -0.73; T -1.1; V -0.616; I -0.954; C -0.36; N -0.434; G -0.675
I67: K -0.778; P -0.773; F -0.437; Y 0.476; M -0.635; A 0.163; W 0.289; S -0.027; C -0.104; E -0.235; G 0.026; R -0.515; T -0.023; V 0.119
M65: F -0.264; S 0.12; A 0.142; Y 0.366; V -0.449; H 0.125; P -0.699; C -0.285; G -0.049; D -0.223; I -0.099; W -0.184; T 0.004; R 0.216; N 0.033; K 0.224; Q 0.225; L -0.114
A59: V -0.719; K -0.671; I -1.08; T -0.929; E -0.967; L -0.886; H -0.859; Q -0.802; S -0.829; W -1.08; R -0.762; P -0.854; M -0.313; D -0.915; C -0.374
H66: T 0.198; G -0.465; F 0.135; E -0.143; Q 0.166; L 0.282; D -0.625; Y 0.11; I 0.404; R 0.178; S -0.336; P -0.88; W -0.079; K -0.039; C 0.089; V 0.286
E62: A 0.025; Q 0.034; D -0.494; N -0.639; M 0.132; L 0.115; Y -0.255; V -0.114; K -0.126; P -1.01; T -0.52; R -0.299; S -0.373; G -0.679; C 0.054; I -0.318; H -0.602
I63: H -0.772; N -0.094; V -0.512; L -0.412; C -0.734; S -0.894; G -0.899; W -0.768; Q -0.863; A -0.845; Y -0.748; P -0.461; M -0.772
D57: T 0.013; Q -0.108; C -0.072; F -0.176; I -0.11; G -0.198; S -0.229; E 0.137; Y -0.303; R 0.018; K 0.22; N 0.069; M 0.132; A 0.151; V -0.143; H -0.472; P -0.673; L -0.057; W -0.245
E64: W -0.179; K -0.193; T -0.779; H -0.222; C -0.309; L 0.056; P -0.435; M -0.006; F -0.029; G -0.606; Y -0.271; V -0.66; D -0.015; S -0.281
V56: Y -0.62

Variants of: B2
Experiment: as above
Conditions: Homo sapiens

Abundance fitness, by site and new letter:
V10: E -0.11; G -0.206; A -0.059; C -0.193; I -0.047; F -0.241; H -0.161
M2: S 0.065; R -0.054; Y -0.127; C -0.112; T 0.073; D -0.185; N -0.112; P -0.31; H -0.136; K -0.013; I 0.059; G 0.009; E -0.046; F -0.055; L -0.003; A -0.142; Q -0.058; W -0.167
V9: P -0.289; G -0.216; F -0.081; E -0.197; D -0.248; S -0.118; M -0.204; K -0.279; R -0.181; C 0.049; Y -0.147; T -0.02; W -0.45; L -0.202; N -0.223; Q 0.051; I -0.101; A -0.046
L6: G -0.034; A 0.099; R -0.08; S 0.073; H 0.038; E -0.106; I 0.007; M 0.086; Y -0.063; F -0.081; T 0.041; W -0.552; D 0.075; V 0.036; P -0.03; K 0.173; Q 0.014; C -0.054
M4: W -0.43; I 0.023; K -0.034; F -0.096; L -0.027; Q -0.055; T 0.04; V 0.006; H 0.065; Y -0.168; C -0.026; S 0.045; D -0.06; P -0.022; G -0.044
C8: Q -0.71; S -0.757; K -0.874; T -0.814; M -1.19; N -0.675; I -1.04; L -0.978; R -0.841; P -0.633; W -1.38; F -1; G -1.11; H -0.901; V -1.14; D -0.787; E -0.927
E3: Q -0.102; R -0.304; A -0.103; D -0.065; Y -0.222; T -0.137; P -0.359; C -0.168; N -0.056; V -0.119; L -0.321; F -0.304; G -0.167; S -0.038; H -0.163; K -0.089; M -0.232; I -0.238
A1: R -0.061; Y -0.168; V 0.037; I -0.049; S 0.046; C -0.099; K 0.154; T 0.125; P -0.581; F -0.161; H 0.245; G -0.115; M 0.03; W -0.199; N 0.109
G5: F -0.28; Y -0.267; M -0.152; L -0.216; H 0.026; P -0.053; Q 0.085; S 0.007; R -0.058; I -0.205; V -0.13; A -0.001; K 0.143; T -0.045; C -0.143; N 0.043; E 0.066
A7: S 0.01; I 0.008; W -0.41; P 0.069; Q -0.077; G -0.155; Y -0.144; M -0.069; T 0.032; L -0.064; E -0.064; N 0.039; H 0.078; D -0.027; C -0.022; F -0.172
